# Patent US20190201542A1 (AbbVie / Abbott, published 2019)
# Substitutions are numbered along the chain they refer to.
# T1: human DLL3 (human, UniProt Q9NYJ7 27-492, limits assumed)
# T1 construct: also called hDLL3; DLL3 protein
# T1 sequence: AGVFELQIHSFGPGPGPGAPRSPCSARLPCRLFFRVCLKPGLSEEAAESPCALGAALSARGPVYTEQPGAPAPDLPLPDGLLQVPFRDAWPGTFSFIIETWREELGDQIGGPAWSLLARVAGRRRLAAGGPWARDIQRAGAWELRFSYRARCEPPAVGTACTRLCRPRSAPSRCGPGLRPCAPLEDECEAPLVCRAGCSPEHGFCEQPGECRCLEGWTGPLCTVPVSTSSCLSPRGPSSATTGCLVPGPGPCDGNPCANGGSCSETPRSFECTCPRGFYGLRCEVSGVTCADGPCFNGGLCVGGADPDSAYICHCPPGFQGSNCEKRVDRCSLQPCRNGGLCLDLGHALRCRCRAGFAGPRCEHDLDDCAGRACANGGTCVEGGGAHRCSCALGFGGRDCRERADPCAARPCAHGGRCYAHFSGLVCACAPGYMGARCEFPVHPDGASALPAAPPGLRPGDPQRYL
# T2: human ASCL1 (human, UniProt P50553 1-236, limits assumed)
# T2 construct: Transcription factor; also called hASCL1; immobilized human ASCL1
# T2 sequence (looked up): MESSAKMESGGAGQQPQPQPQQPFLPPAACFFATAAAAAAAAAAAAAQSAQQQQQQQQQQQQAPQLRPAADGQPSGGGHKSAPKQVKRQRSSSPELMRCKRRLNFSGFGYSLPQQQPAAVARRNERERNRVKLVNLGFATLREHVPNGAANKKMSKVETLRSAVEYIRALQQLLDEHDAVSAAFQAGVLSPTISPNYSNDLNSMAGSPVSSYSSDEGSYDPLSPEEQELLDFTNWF
# B1: hSC16.13 (antibody, human IgG1, kappa, V domains shown)
# VH: QITLKESGPTLVKPTQTLTLTCTFSGFSLSTSGMGVGWIRQPPGKALEWLAHIWWDDVKRYSPSLKSRLTITKDTSKNQVVLTMTNMDPVDTATYYCARIVSFDNDVVSAMDYWGQGTLVTVSS
# VL: DIQMTQSPSSLSASVGDRVTITCSASSSVSYMYWYQQKPGKAPKLLIYLTSNLASGVPSRFSGSGSGTDFTLTISSLQPEDFATYYCQQWRSNPFTFGQGTKLEIKR
# notes: humanized IgG1/kappa; also called humanized SC16.13
# B2: chimeric SC16.34 (antibody, human IgG1, kappa, V domains shown)
# VH: QIQLVQSGPELKRPGETVKISCKASGYTFTNYGMNWVKQAPGKGLKWMGWINTYTGDPTYADDFKGRFAFSLETSASTAYLQINNLKNEDTATYFCARIGGNSPSDYWGQGTSLTVSS
# VL: SIVMTQTPKFLLVSAGDRVTITCKASQSVSNDVAWYQQKPGQSPKLLIYYASNRYSGVPDRFTGSGYGTDFTFTISTVQAEDLAVYFCQQDYSSPWTFGGGTKLEIKR
# notes: murine V regions on human IgG1/kappa; also called chimeric parent antibody of hSC16.34
# B3: chimeric SC16.56 (antibody, human IgG1, kappa, V domains shown)
# VH: B2 VH with R13K, G49A, D57E, Y80S, N84I, G101D, N102S, S113T
# VL: B2 VL with A34V, S56T, T63A, T72S, S93T, K107R
# notes: murine V regions on human IgG1/kappa; also called chimeric parent antibody of hSC16.56
# B4: chimeric SC16.25 (antibody, human IgG1, kappa, V domains shown)
# VH: QVTLKESGPGILQPSQTLSLTCSFSGFSLSTSGMGVGWIRQPSGEGLEWLTDIWWDDNKYYNPSLKSRLTISKDTSSNQVFLNITSVDTADTATYYCARRVNYYYDPYYAMDYWGQGTSVTVSS
# VL: QIVLTQSPAIMSASPGEKVTMTCSASSSVSYMHWYQQKSGTSPKRWIYDSSKLASGVPARFSGSGSGTSYSLTISSMEAEDAATYYCQQWSSNPLTFGAGTKLELKR
# notes: murine V regions on human IgG1/kappa; also called chimeric parent antibody of hSC16.25
# B5: SC72.201 (antibody, V domains shown)
# VH: EVNLEESGGGLVQPGGSMKLSCVASGFTFSNYWMNWVRQSPEKGLEWVAQIRSKSDNYATHYAESVKGRFTISRDDSKSSVYLQMNNLRSEDTGIYYCRTGPDVWGTGTTVTVSS
# VL: DIQMTQSPASLSVSVGETVTITCRASENIYSSLAWYQQKQGNSPQLLVYAATKLADGVPSRFSGSGSGTQYSLKINSLQSEDFGSYYCQHFWGTTWTFGGGTKLEIK
# notes: murine mAb
# B6: SC72.91 (antibody, V domains shown)
# VH: QVQLQQSGPEVVKPGASVKLSCKASGYTFTTYDINWVKQRPGQGLEWIGWIYFRDGTNKYNEKFKGKATLTVDTSSSTAYMELHSLTSEDSAVYFCASVYDGYYVSGFDIMDYWGQGTSVTVSS
# VL: DVVLTQTPLSLPVSLGDQASIYCRSSQSIVHSNGNTYFEWYLQKPGQSPKLLIYKVSNRLSGVPDRFSGSGSGTDFTLKISRVEAVDLGIYYCFQASHVPFTFGAGTKLELK
# notes: murine mAb
# B7: SC72.63 (antibody, V domains shown)
# VH: EVQLLQSGPELVKPGASVKMSCKASGYTLTDYNLHWVKQSHAKSLEWIGYINPYNGVTSYNQRFKGKATLTVNKSSSTAFMEFRSLTSEDSAVYYCVSLYYGDDPFACWGQGTLVTVST
# VL: DIQMTQSPASLSASVGETVTMTCRASENIYSNLAWYQQKQGKSPQLLVYAATNLADDVPSRFSGSGSGTQFSLKINSLQPEDFGIYYCHHFYGSPLTFGAGTKLELK
# notes: murine mAb
# B8: SC72.165 (antibody, V domains shown)
# VH: QVQLQQPGAELVRPGASVRLSCKASGYSFTSYWINWVKQRPGQGLEWIGNIYPGSSNTNYNEKFKRKATLTVDTSSSTAYMQLSSLTSDDSAVYYCARSESDYWGQGTTLTVSS
# VL: DIVLTQSPASLAVSPGQRATISCKASQSVGYDGDTYLSWYQQKPGQPPKLLIYGVSILESGIPARFSGSGSGTDFTLNIHPVEEEDAATYYCQQSSEDPYTFGGGTKLEIK
# notes: murine mAb
# B9: SC72.216 (antibody, V domains shown)
# VH: QIQLVQSGPELRKPGETVKISCKASGYTFTNYPMHWVKQAPGKGFKWMGWINTYSGVPSYADDFKGRFAFSLETSASSAYLQINNLKNEDMATYFCARHNYNSYDVFAYWGQGTLVTVSA
# VL: B8 VL with L4V, P15L, G30D, T35S, L37M, S38N, V55A, I57N, S96N
# notes: murine mAb
# B10: SC72.181 (antibody, V domains shown)
# VH: B8 VH with L11V, R13K, S28T, N57S, R66S, A97S
# VL: B8 VL with P15L, G30D, Y31D, D34G, L37M, S56F, S96N
# notes: murine mAb
# B11: SC72.76 (antibody, V domains shown)
# VH: QVQLKESGPGLVAPSQSLSITCTVSDFSLTNYAVHWVRQSPGKGLEWLGVIWSDGNTDYNAPFISRLSISKDNSKSQVFFKMNSLQADDTAIYYCASYGDSAYWGQGTLVTVSA
# VL: DIVLTQSPASLTVSLGQRATISCRASQSVRTSNYSYMHWYQQKPGQPPKLLIKYASNLESGVPARFSGSGSGTDFTLNIHPVEEEDTATYYCQHHWEIPFTFGGGTKLEIK
# notes: murine mAb
# B12: SC72.52 (antibody, V domains shown)
# VH: QVQLQQPGSVLVRPGASVKLSCKASGYTFTSYWMHWVKQRPGQGLEWIGEIYPNSGRTNYNEKFKGKATLTVDTSSSTAYVDLSSLTSEDSAVYYCHYYDDNYGYWGQGTTLTVSS
# VL: DIVITQDELSNPVTSGESVSISCRSSKSLLYKDGKTYLNWFLQRPGQSPQLLIYLMSTRASGVSDRFSGSGSGTDFTLEISRVKAEDVGVYYCQQFVEYPLTFGAGTKLELK
# notes: murine mAb
# B13: SC72.96 (antibody, V domains shown)
# VH: EVQLQQSGPELVKPGASVKMSCKASGYTLTAYNIHWVKQSHGKSLEWIGFINPHSGGTTYNEKFKGKATLTVNKSSSTANMELRSLTSEDSAVYYCASIYYYGSSYFDHWGQGTTLTVSS
# VL: DIQMTQSPASLSASVGETVTMTCRASENIHSNLVWYQQKQGKSPQLLVYAATNLADGVPSRFSGSGSGSQFSLKIDSLQPEDFGSYLCQHFYGTPRTFGGGTKLEIK
# notes: murine mAb
# B14: SC72.93 (antibody, V domains shown)
# VH: QVQLQQSGAELVRPGASVTLSCKASGYIFIDYEMHWVKQTPVHGLEWIGSIDPETGDTVYNQKFKGKATLTADKSSSTAYMELRSLTSEDSAVYYCSRGGLDYWGQGTTLTVSS
# VL: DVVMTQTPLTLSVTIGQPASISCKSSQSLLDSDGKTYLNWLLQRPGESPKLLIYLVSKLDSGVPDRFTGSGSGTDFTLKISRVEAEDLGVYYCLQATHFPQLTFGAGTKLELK
# notes: murine mAb; same VL as SC72.2
# B15: SC72.94 (antibody, V domains shown)
# VH: QVQLQQPGTELVKPGASVKLSCKASAYTFTSLWIHWVKQRPGQGLEWIGDINPSIGDTYYNERFKSKATLTVDKSSSTAYMQLSSLTSEDSAVYYCTTGDSWGQGTTLTVSS
# VL: DIQMNQSPSSLSASLGDTITITCRASQGISIWLSWYQQKPGNIPKLLIYKASNLHTGVPPSFSGSGSGTDFTLTISSLQPEDIATYYCLQSQSYPWTFGGGTKLEIK
# notes: murine mAb
# B16: SC72.28 (antibody, V domains shown)
# VH: DVQLQQSGAELVRPGALVKLSCKASGFNIKDYLIHWVKQRPEQGLEWIGCIDPENGNTIYDPRFQGKAKITSDTSSTTAYLRLTSLTSEDTAVYYCGRGGLDYWGQGTTLTVSS
# VL: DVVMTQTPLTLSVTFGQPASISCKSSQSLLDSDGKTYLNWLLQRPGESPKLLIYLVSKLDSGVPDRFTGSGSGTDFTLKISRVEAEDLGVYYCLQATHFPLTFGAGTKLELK
# notes: murine mAb
# B17: SC72.132 (antibody, V domains shown)
# VH: EVKLVESEGGLVQPGSSMKLSCTASGFTFSDYYMAWVRQVPEKGLEWVATIDYDGSNTYYLDSLKSRFIISRDNAKNILYLQMSSLKSEDTATYYCARDGGYDEDYFDYWGQGTTLTVSS
# VL: DIVMSQSPSSLAVSVGEKVTLSCKSSQTLLYSSNQQNYLAWYQQKPGQSPKLLIYWASTRESGVPDRFTGSGSGTDFTLTISSVKAEDLAVYYCHQYYTYPFTFGSGTKLEIK
# notes: murine mAb
# Biological target: T1, human DLL3
# Test: surface plasmon resonance
row,binding result,Binder
1,binds,B1
2,binds,B2
3,binds,B3
4,binds,B4

# Biological target: T2, human ASCL1
# Test: screen on immobilized hASCL1 or h293-hASCL1 cells
row,binding result,Binder
1,binds,B5
2,binds,B6
3,binds,B7
4,binds,B8
5,binds,B9
6,binds,B10
7,binds,B11
8,binds,B12
9,binds,B13
10,binds,B14
11,binds,B15
12,binds,B16
13,binds,B17
